Data on one molecule can be found in patent US20260034217A1 (REGENTS OF THE UNIVERSITY OF COLORADO A BODY CORPORATE, published 2026).

Where only a bound is given, the exact number is not on record here.

For the assay, the target named is CD64 (high affinity immunoglobulin gamma Fc receptor I) (human, UniProt P12314 16-374). The experiment in a line: cell-based or functional assay.
Chain of CD64 (high affinity immunoglobulin gamma Fc receptor I) (P12314 16-374, form in doubt): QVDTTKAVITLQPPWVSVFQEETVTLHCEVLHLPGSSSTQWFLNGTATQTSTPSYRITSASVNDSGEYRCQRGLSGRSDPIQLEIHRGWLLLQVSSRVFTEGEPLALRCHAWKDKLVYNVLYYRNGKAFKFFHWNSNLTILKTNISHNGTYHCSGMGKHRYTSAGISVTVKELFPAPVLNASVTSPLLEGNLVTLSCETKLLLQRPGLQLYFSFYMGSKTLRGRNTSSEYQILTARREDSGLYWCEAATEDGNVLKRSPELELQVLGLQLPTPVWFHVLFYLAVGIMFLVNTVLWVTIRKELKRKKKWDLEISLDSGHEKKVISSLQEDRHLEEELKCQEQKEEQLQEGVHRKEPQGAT

B1: CD64-BB-m22 CAR (CD64 CAR containing the m22 scFv and a 4-1BB costimulatory domain) (other)
chain: EVQLVESGGGLVKPGGSLRLSCVASGFIFSDNYMYWVRQTPEKRLEWVATISDGGSYTYYPDSVKGRFTISRDNAKNNLYLQMSSLKSEDTAIYYCARGYYRYEGAMDYWGQGTSVTVSSGGGGSGGGGSGGGGSNIVMTQSPSSLAVSAGEKVTMSCKSSQSVLYSSNQKNYLAWYQQKPGQSPKLLIYWASTRESGVPDRFTGSGSGTDFTLTISSVQAEDLAVYYCHQYLSSWTFGGGTKLEIKTSTTTPAPRPPTPAPTIASQPLSLRPEACRPAAGGAVHTRGLDFACDIYIWAPLAGTCGVLLLSLVITLYCKRGRKKLLYIFKQPFMRPVQTTQEEDGCSCRFPEEEEGGCELSRVKFSRSADAPAYQQGQNQLYNELNLGRREEYDVLDKRRGRDPEMGGKPRRKNPQEGLYNELQKDKMAEAYSEIGMKGERRRGKGHDGLYQGLSTATKDTYDALHMQALPPR
For B1, the “fold decrease in CD64+ AML cells (monocytic patient sample), flow cytometry, CAR-T with or without ven/aza” value is > 40 fold and the “fold decrease in viable AML cells (mixed monocytic/primitive patient sample), flow cytometry after 48 hours with CAR-T cells alone” value is 4.2 fold.
